{"source": "paper PMC10397247", "assay_in_all_cases": "two-hybrid library CCNG1;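 note: natural log of median RNA to DNA barcode read ratio; higher means stronger binding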", "key": {"4H2937-bA": {"target": "T1, 4H2937-bA", "T1 chain": "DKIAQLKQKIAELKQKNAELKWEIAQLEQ"}, "4H2944-bA": {"target": "T2, 4H2944-bA", "T2 chain": "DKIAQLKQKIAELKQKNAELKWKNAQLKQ"}, "4H48-bA": {"target": "T3, 4H48-bA", "T3 chain": "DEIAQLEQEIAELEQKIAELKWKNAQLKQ"}, "4H491-bA": {"target": "T4, 4H491-bA", "T4 chain": "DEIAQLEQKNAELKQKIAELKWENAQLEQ"}, "4H342-bA": {"target": "T5, 4H342-bA", "T5 chain": "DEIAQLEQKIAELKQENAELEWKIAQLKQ"}, "4H48-bH": {"target": "T6, 4H48-bH", "T6 chain": "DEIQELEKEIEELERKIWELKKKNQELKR"}, "4H2937-bH": {"target": "T7, 4H2937-bH", "T7 chain": "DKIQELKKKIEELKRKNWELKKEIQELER"}, "4H2944-bH": {"target": "T8, 4H2944-bH", "T8 chain": "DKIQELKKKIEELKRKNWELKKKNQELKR"}, "4H342-bH": {"target": "T9, 4H342-bH", "T9 chain": "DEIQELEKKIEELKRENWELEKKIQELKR"}, "4H491-bH": {"target": "T10, 4H491-bH", "T10 chain": "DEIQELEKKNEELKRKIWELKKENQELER"}, "4H118-bH": {"target": "T11, 4H118-bH", "T11 chain": "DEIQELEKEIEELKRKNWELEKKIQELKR"}, "4H346-bH": {"target": "T12, 4H346-bH", "T12 chain": "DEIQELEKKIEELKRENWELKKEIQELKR"}, "4H953-bH": {"target": "T13, 4H953-bH", "T13 chain": "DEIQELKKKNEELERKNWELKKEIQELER"}, "4H2627-bH": {"target": "T14, 4H2627-bH", "T14 chain": "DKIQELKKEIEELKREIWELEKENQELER"}, "4H3010-bH": {"target": "T15, 4H3010-bH", "T15 chain": "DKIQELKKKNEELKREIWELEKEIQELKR"}, "4H4073-bH": {"target": "T16, 4H4073-bH", "T16 chain": "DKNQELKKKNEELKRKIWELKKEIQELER"}, "4H883-bN": {"target": "T17, 4H883-bN", "T17 chain": "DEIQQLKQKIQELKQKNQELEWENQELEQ"}, "4H3961-bA": {"target": "T18, 4H3961-bA", "T18 chain": "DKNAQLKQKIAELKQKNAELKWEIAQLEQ"}, "4H3427-bH": {"target": "T19, 4H3427-bH", "T19 chain": "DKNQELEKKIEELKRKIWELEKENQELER"}, "4H2673-bH": {"target": "T20, 4H2673-bH", "T20 chain": "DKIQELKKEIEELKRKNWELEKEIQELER"}, "4H683-bH": {"target": "T21, 4H683-bH", "T21 chain": "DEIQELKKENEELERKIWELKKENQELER"}, "4H2702-bH": {"target": "T22, 4H2702-bH", "T22 chain": "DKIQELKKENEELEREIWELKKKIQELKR"}, "4H170-bH": {"target": "T23, 4H170-bH", "T23 chain": "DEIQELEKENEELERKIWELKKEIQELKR"}, "4H754-bH": {"target": "T24, 4H754-bH", "T24 chain": "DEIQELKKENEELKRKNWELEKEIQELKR"}, "4H1831-bH": {"target": "T25, 4H1831-bH", "T25 chain": "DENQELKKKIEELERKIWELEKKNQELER"}, "4H3926-bH": {"target": "T26, 4H3926-bH", "T26 chain": "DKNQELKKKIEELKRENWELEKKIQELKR"}, "4H2586-bH": {"target": "T27, 4H2586-bH", "T27 chain": "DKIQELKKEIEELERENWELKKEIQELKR"}, "4H855-bH": {"target": "T28, 4H855-bH", "T28 chain": "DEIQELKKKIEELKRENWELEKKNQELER"}, "4H918-bH": {"target": "T29, 4H918-bH", "T29 chain": "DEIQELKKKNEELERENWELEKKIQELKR"}, "4H457-bH": {"target": "T30, 4H457-bH", "T30 chain": "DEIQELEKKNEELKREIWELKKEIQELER"}, "4H968-bH": {"target": "T31, 4H968-bH", "T31 chain": "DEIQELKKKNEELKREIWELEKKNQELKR"}, "4H3112-bH": {"target": "T32, 4H3112-bH", "T32 chain": "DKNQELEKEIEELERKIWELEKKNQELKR"}, "4H575-bH": {"target": "T33, 4H575-bH", "T33 chain": "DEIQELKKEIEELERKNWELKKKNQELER"}, "4H780-bH": {"target": "T34, 4H780-bH", "T34 chain": "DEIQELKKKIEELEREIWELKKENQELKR"}, "4H797-bH": {"target": "T35, 4H797-bH", "T35 chain": "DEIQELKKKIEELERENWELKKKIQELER"}}, "data": [{"binder": "DKIAQLKQKIAELKQKNAELKWEIAQLEQ", "note": "[4H2937-bA]", "values": [{"measurement": "interaction score", "setting": "4H2937-bA", "value": -0.419}, {"measurement": "interaction score", "setting": "4H2944-bA", "value": -0.548}, {"measurement": "interaction score", "setting": "4H48-bA", "value": 0.573}, {"measurement": "interaction score", "setting": "4H491-bA", "value": -0.0219}, {"measurement": "interaction score", "setting": "4H342-bA", "value": 1.61}]}, {"binder": "DKIQELKKKIEELKRKNWELKKEIQELER", "note": "[4H2937-bH]", "values": [{"measurement": "interaction score", "setting": "4H48-bH", "value": 0.185}, {"measurement": "interaction score", "setting": "4H2937-bH", "value": 0.307}, {"measurement": "interaction score", "setting": "4H2944-bH", "value": -0.833}, {"measurement": "interaction score", "setting": "4H342-bH", "value": 1.21}, {"measurement": "interaction score", "setting": "4H491-bH", "value": 0.828}]}, {"binder": "DEIQELEKEIEELKRKNWELEKKIQELKR", "note": "[4H118-bH]", "values": [{"measurement": "interaction score", "setting": "4H118-bH", "value": 1.75}, {"measurement": "interaction score", "setting": "4H346-bH", "value": 0.654}, {"measurement": "interaction score", "setting": "4H953-bH", "value": 0.224}, {"measurement": "interaction score", "setting": "4H2627-bH", "value": 1.09}, {"measurement": "interaction score", "setting": "4H3010-bH", "value": 1.94}, {"measurement": "interaction score", "setting": "4H4073-bH", "value": 0.239}, {"measurement": "interaction score", "setting": "4H883-bN", "value": 1.72}, {"measurement": "interaction score", "setting": "4H3961-bA", "value": 1.46}, {"measurement": "interaction score", "setting": "4H3427-bH", "value": 1.04}, {"measurement": "interaction score", "setting": "4H2673-bH", "value": 1.9}, {"measurement": "interaction score", "setting": "4H683-bH", "value": -0.584}, {"measurement": "interaction score", "setting": "4H2702-bH", "value": 0.513}, {"measurement": "interaction score", "setting": "4H170-bH", "value": 1.57}, {"measurement": "interaction score", "setting": "4H754-bH", "value": 0.181}, {"measurement": "interaction score", "setting": "4H1831-bH", "value": -0.127}, {"measurement": "interaction score", "setting": "4H3926-bH", "value": 1.57}, {"measurement": "interaction score", "setting": "4H2586-bH", "value": 0.817}, {"measurement": "interaction score", "setting": "4H855-bH", "value": 0.119}, {"measurement": "interaction score", "setting": "4H918-bH", "value": 0.604}, {"measurement": "interaction score", "setting": "4H457-bH", "value": 0.505}, {"measurement": "interaction score", "setting": "4H968-bH", "value": 1.49}, {"measurement": "interaction score", "setting": "4H3112-bH", "value": 0.102}, {"measurement": "interaction score", "setting": "4H575-bH", "value": -0.101}, {"measurement": "interaction score", "setting": "4H780-bH", "value": 0.443}, {"measurement": "interaction score", "setting": "4H797-bH", "value": -0.304}]}]}
